Measurements from PMC7026398, “Structural and functional insight into the effect of AFF4 dimerization on activation of HIV-1 proviral transcription” (Cell Discovery, 2020).

B1: human AFF4-THD (902-1163), wild type [human] / itself (parent)
chain: RRTKLVFDDRNYSADHYLQEAKKLKHNADALSDRFEKAVYYLDAVVSFIECGNALEKNAQESKSPFPMYSETVDLIKYTMKLKNYLAPDATAADKRLTVLCLRCESLLYLRLFKLKKENALKYSKTLTEHLKNSYNNSQAPSPGLGSKAVGMPSPVSPKLSPGNSGNYSSGASSASASGSSVTIPQKIHQMAASYVQVTSNFLYATEIWDQAEQLSKEQKEFFAELDKVMGPLIFNASIMTDLVRYTRQGLHWLRQDAKLIS
B2: AFF1-THD (953-1210), wild type [not stated] / itself (parent)
chain: GKPQVKFDKQQADLHMREAKKMKQKAELMTDRVGKAFKYLEAVLSFIECGIATESESQSSKSAYSVYSETVDLIKFIMSLKSFSDATAPTQEKIFAVLCMRCQSILNMAMFRCKKDIAIKYSRTLNKHFESSSKVAQAPSPCIASTGTPSPLSPMPSPASSVGSQSSAGSVGSSGVAATISTPVTIQNMTSSYVTITSHVLTAFDLWEQAEALTRKNKEFFARLSTNVCTLALNSSLVDLVHYTRQGFQQLQELTKTP

Variants of: B1
Assay: analytical gel filtration
Settings: with itself; read off a plot

Variant | screen value [mL]
RRTKLVFDDRNYSADHYLQEAKKLKHNADALSDRFEKAVYYLDAVVSFIECGNALEKNAQESKSPFPMYSETVDLIKYTMKLKNYLAPDATAADKRLTVLCLRCESLLYLRLFKLKKENALKYSKTLTEHLKNSYNNSQAPSPGLGSKAVGMPSPVSPKLSPGNSGNYSSGASSASASGSSVTIPQKIHQMAASAVQVTSNFLYATEIWDQAEQLSKEQKEFFAELDKVMGPLIFNASIMTDLVRYTRQGLHWLRQDAKLIS [chain 1 Y195A] | 10.9
RRTKLVFDDRNYSADHYLQEAKKLKHNADALSDRFEKAVYYLDAVVSFIECGNALEKNAQESKSPFPMYSETVDLIKYTMKLKNYLAPDATAADKRLTVLCLRCESLLYLRLAKLKKENALKYSKTLTEHLKNSYNNSQAPSPGLGSKAVGMPSPVSPKLSPGNSGNYSSGASSASASGSSVTIPQKIHQMAASAVQVTSNFLYATEIWDQAEQLSKEQKEFFAELDKVMGPLIFNASIMTDLVRYTRQGLHWLRQDAKLIS [chain 1 F113A Y195A] | 10.8
RRTKLVFDDRNYSADHYLQEAKKLKHNADALSDRFEKAVYYLDAVVSFIECGNALEKNAQESKSPFPMYSETVDLIKYTMKLKNYLAPDATAADKRLTVLCLRCESLLYLRLAKLKKENALKYSKTLTEHLKNSYNNSQAPSPGLGSKAVGMPSPVSPKLSPGNSGNYSSGASSASASGSSVTIPQKIHQMAASYVQVTSNFLYATEIWDQAEQLSKEQKEFFAELDKVMGPLIFNASIMTDLVRYTRQGLHWLRQDAKLIS [chain 1 F113A] | 10.6

Variants of: B1
Assay: sedimentation velocity analytical ultracentrifugation
Settings: with itself

Variant | screen value [kD]
RRTKLVFDDRNYSADHYLQEAKKLKHNADALSDRFEKAVYYLDAVVSFIECGNALEKNAQESKSPFPMYSETVDLIKYTMKLKNYLAPDATAADKRLTVLCLRCESLLYLRLAKLKKENALKYSKTLTEHLKNSYNNSQAPSPGLGSKAVGMPSPVSPKLSPGNSGNYSSGASSASASGSSVTIPQKIHQMAASAVQVTSNFLYATEIWDQAEQLSKEQKEFFAELDKVMGPLIFNASIMTDLVRYTRQGLHWLRQDAKLIS [chain 1 F113A Y195A] | 28.9

Same assay, conditions: with itself; read off a plot

Variant | screen value [S]
RRTKLVFDDRNYSADHYLQEAKKLKHNADALSDRFEKAVYYLDAVVSFIECGNALEKNAQESKSPFPMYSETVDLIKYTMKLKNYLAPDATAADKRLTVLCLRCESLLYLRLAKLKKENALKYSKTLTEHLKNSYNNSQAPSPGLGSKAVGMPSPVSPKLSPGNSGNYSSGASSASASGSSVTIPQKIHQMAASAVQVTSNFLYATEIWDQAEQLSKEQKEFFAELDKVMGPLIFNASIMTDLVRYTRQGLHWLRQDAKLIS [chain 1 F113A Y195A] | 2.2

Variants of: B2
Assay: analytical gel filtration
Settings: with itself; read off a plot

Variant | screen value [mL]
GKPQVKFDKQQADLHMREAKKMKQKAELMTDRVGKAFKYLEAVLSFIECGIATESESQSSKSAYSVYSETVDLIKFIMSLKSFSDATAPTQEKIFAVLCMRCQSILNMAMARCKKDIAIKYSRTLNKHFESSSKVAQAPSPCIASTGTPSPLSPMPSPASSVGSQSSAGSVGSSGVAATISTPVTIQNMTSSAATITSHALTAFDLWEQAEALTRKNKEFFARLSTNVCTLALNSSLVDLVHYTRQGFQQLQELTKTP [chain 1 F111A Y193A V194A V200A] | 10.5
GKPQVKFDKQQADLHMREAKKMKQKAELMTDRVGKAFKYLEAVLSFIECGIATESESQSSKSAYSVYSETVDLIKFIMSLKSFSDATAPTQEKIFAVLCMRCQSILNMAMARCKKDIAIKYSRTLNKHFESSSKVAQAPSPCIASTGTPSPLSPMPSPASSVGSQSSAGSVGSSGVAATISTPVTIQNMTSSYVTITSHVLTAFDLWEQAEALTRKNKEFFARLSTNVCTLALNSSLVDLVHYTRQGFQQLQELTKTP [chain 1 F111A] | 9.4
GKPQVKFDKQQADLHMREAKKMKQKAELMTDRVGKAFKYLEAVLSFIECGIATESESQSSKSAYSVYSETVDLIKFIMSLKSFSDATAPTQEKIFAVLCMRCQSILNMAMFRCKKDIAIKYSRTLNKHFESSSKVAQAPSPCIASTGTPSPLSPMPSPASSVGSQSSAGSVGSSGVAATISTPVTIQNMTSSAVTITSHVLTAFDLWEQAEALTRKNKEFFARLSTNVCTLALNSSLVDLVHYTRQGFQQLQELTKTP [chain 1 Y193A] | 9.5

Variants of: B2
Assay: sedimentation velocity analytical ultracentrifugation
Settings: with itself

Variant | screen value [kD]
GKPQVKFDKQQADLHMREAKKMKQKAELMTDRVGKAFKYLEAVLSFIECGIATESESQSSKSAYSVYSETVDLIKFIMSLKSFSDATAPTQEKIFAVLCMRCQSILNMAMARCKKDIAIKYSRTLNKHFESSSKVAQAPSPCIASTGTPSPLSPMPSPASSVGSQSSAGSVGSSGVAATISTPVTIQNMTSSAATITSHALTAFDLWEQAEALTRKNKEFFARLSTNVCTLALNSSLVDLVHYTRQGFQQLQELTKTP [chain 1 F111A Y193A V194A V200A] | 27.2

Same assay, conditions: with itself; read off a plot

Variant | screen value [S]
GKPQVKFDKQQADLHMREAKKMKQKAELMTDRVGKAFKYLEAVLSFIECGIATESESQSSKSAYSVYSETVDLIKFIMSLKSFSDATAPTQEKIFAVLCMRCQSILNMAMARCKKDIAIKYSRTLNKHFESSSKVAQAPSPCIASTGTPSPLSPMPSPASSVGSQSSAGSVGSSGVAATISTPVTIQNMTSSAATITSHALTAFDLWEQAEALTRKNKEFFARLSTNVCTLALNSSLVDLVHYTRQGFQQLQELTKTP [chain 1 F111A Y193A V194A V200A] | 2.2
